This is an account of results in publication PMC8657803, “Structural Insight into the Binding of TGIF1 to SIN3A PAH2 Domain through a C-Terminal Amphipathic Helix” (International Journal of Molecular Sciences, 2021).

The target in this assay is T1, TGIF1_(256–401), recombinant truncation covering RD2 (human, UniProt Q15583-1 256-401).
T1 construct: two additional residues left at the N-terminus after thrombin removal of the purification tag; 15N-labelled in the NMR titration; also called TGIF1 RD2 truncation; TGIF1 M256–A401
T1 sequence (Q15583 other isoform, or with tags, fused parts or gaps): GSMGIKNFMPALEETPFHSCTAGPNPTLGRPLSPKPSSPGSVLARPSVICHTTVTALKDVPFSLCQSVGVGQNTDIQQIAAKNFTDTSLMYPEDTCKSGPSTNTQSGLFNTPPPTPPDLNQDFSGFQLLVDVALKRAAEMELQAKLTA
The assay is described as follows: NMR titration; 0.1 mM 15N-labelled TGIF1 truncation mixed with non-labelled SIN3A PAH2 at molar ratios 1:0 to 1:2; 1H-15N HSQC; 20 mM HEPES, 80 mM NaCl, 2 mM DTT, 0.05% NaN3, pH 6.4, 90% H2O/10% D2O; 293 K (25 °C) as printed. To be noted: both partners purified.

B1: SIN3A PAH2 (residues S295–N384), recombinant (domain or fragment, human, UniProt Q96ST3 295-384, looked up)
chain: SLQNNQPVEFNHAINYVNKIKNRFQGQPDIYKAFLEILHTYQKEQRNAKEAGGNYTPALTEQEVYAQVARLFKNQEDLLSEFGQFLPDAN
notes: SIN3A, human, paired amphipathic helix domain 2 (PAH2), residues S295-N384; Non-labelled
As for B1, the binding result is on record as “binds”.
